test system: Escherichia coli TOP10; assay: shrunken log2 fold change of peptide-encoding DNA abundance (4.5 h post-induction vs induction); higher = less antimicrobial activity (less host growth inhibition); details: time post-induction: 4.5 h; library: site-saturation at positions 5, 18, 19, 20
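Note: peptides expressed intracellularly from a pBAD plasmid library in pooled LB shake-flask culture, induced with 0.3% L-arabinose, DNA abundance read by NGS, three biological replicates, DESeq2 with apeglm shrinkage.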

Sequence | shrunken log2 fold change
RRIRFRPPRLPRPRPRPPYFPRP | 0.0621
RRIRTRPPRLPRPRPRPGIWPRP | -0.0153
RRIRQRPPRLPRPRPRPSKDPRP | -0.462
RRIRTRPPRLPRPRPRPTMEPRP | -0.489
RRIRHRPPRLPRPRPRPRIQPRP | -0.267
RRIRDRPPRLPRPRPRPQKNPRP | -0.431
RRIRCRPPRLPRPRPRPRGCPRP | 0.395
RRIRGRPPRLPRPRPRPSDNPRP | -0.165
RRIRPRPPRLPRPRPRPCIRPRP | -0.14
RRIRDRPPRLPRPRPRPAGVPRP | 0.25
RRIRARPPRLPRPRPRPTQAPRP | 1.06
RRIRWRPPRLPRPRPRPHTGPRP | -0.233
RRIRTRPPRLPRPRPRPKWTPRP | 0.0189
RRIRLRPPRLPRPRPRPTMVPRP | -0.0972
RRIRERPPRLPRPRPRPTSPPRP | -0.185
RRIRSRPPRLPRPRPRPQIAPRP | -0.102
RRIRWRPPRLPRPRPRPKLYPRP | 0.113
RRIRSRPPRLPRPRPRPPSNPRP | -0.00786
RRIRWRPPRLPRPRPRPVTTPRP | -0.0727
RRIRGRPPRLPRPRPRPPRAPRP | 1.25
RRIRFRPPRLPRPRPRPICEPRP | -0.0168
RRIRKRPPRLPRPRPRPCEVPRP | 0.0441
RRIRSRPPRLPRPRPRPLCPPRP | -0.0602
RRIRTRPPRLPRPRPRPLSQPRP | -0.0906
RRIRNRPPRLPRPRPRPYNWPRP | -0.161

Sequence | shrunken log2 fold change
RRIRPRPPRLPRPRPRPDCHPRP | -0.204
RRIRLRPPRLPRPRPRPVVMPRP | -0.282
RRIRQRPPRLPRPRPRPFREPRP | -0.0101
RRIRIRPPRLPRPRPRPHMCPRP | -1.25
RRIRARPPRLPRPRPRPKLDPRP | 0.655
RRIRDRPPRLPRPRPRPMACPRP | -0.00146
RRIRSRPPRLPRPRPRPQGIPRP | 0.0897
RRIRTRPPRLPRPRPRPLCPPRP | -0.165
RRIRTRPPRLPRPRPRPYHTPRP | -0.723
RRIRCRPPRLPRPRPRPMWVPRP | 0.121
RRIRQRPPRLPRPRPRPDFFPRP | 0.00508
RRIRDRPPRLPRPRPRPGNKPRP | -0.0705
RRIRRRPPRLPRPRPRPECAPRP | 0.426
RRIRGRPPRLPRPRPRPHYLPRP | -0.295
RRIRVRPPRLPRPRPRPLNIPRP | -0.0458
RRIRQRPPRLPRPRPRPNKQPRP | 0.0262
RRIRIRPPRLPRPRPRPIPSPRP | -0.193
RRIRERPPRLPRPRPRPSIEPRP | -0.37
RRIRCRPPRLPRPRPRPMDCPRP | -0.0376
RRIRDRPPRLPRPRPRPFDAPRP | -0.13
RRIRIRPPRLPRPRPRPTAIPRP | -0.574
RRIRFRPPRLPRPRPRPMGPPRP | -0.238
RRIRKRPPRLPRPRPRPNATPRP | 1.16
RRIRSRPPRLPRPRPRPCMWPRP | 0.0267
RRIRIRPPRLPRPRPRPPCPPRP | -0.141

Sequence | shrunken log2 fold change
RRIRCRPPRLPRPRPRPEIKPRP | 0.0171
RRIRVRPPRLPRPRPRPMITPRP | 0.104
RRIRHRPPRLPRPRPRPGRLPRP | 0.129
RRIRKRPPRLPRPRPRPMCLPRP | -0.0392
RRIRDRPPRLPRPRPRPTTFPRP | 0.0301
RRIRQRPPRLPRPRPRPDAHPRP | -0.0825
RRIRCRPPRLPRPRPRPFWGPRP | 0.0697
RRIRFRPPRLPRPRPRPHQKPRP | -0.0745
RRIRMRPPRLPRPRPRPPTWPRP | 0.627
RRIRWRPPRLPRPRPRPPLWPRP | 0.558
RRIRQRPPRLPRPRPRPDNYPRP | -0.194
RRIRLRPPRLPRPRPRPPTYPRP | -0.304
RRIRCRPPRLPRPRPRPSWRPRP | -0.0716
RRIRKRPPRLPRPRPRPKSSPRP | 0.202
RRIRSRPPRLPRPRPRPFRYPRP | -0.822
RRIRRRPPRLPRPRPRPVRLPRP | 1.08
RRIRRRPPRLPRPRPRPEDDPRP | 1.11
RRIRDRPPRLPRPRPRPPPIPRP | 0.45
RRIRFRPPRLPRPRPRPFRPPRP | -0.466
RRIRQRPPRLPRPRPRPVPEPRP | 0.203
RRIRSRPPRLPRPRPRPDSQPRP | -0.267
RRIRRRPPRLPRPRPRPKIGPRP | 0.396
RRIRIRPPRLPRPRPRPSKRPRP | -0.622
RRIRWRPPRLPRPRPRPDKPPRP | 0.0507
RRIRWRPPRLPRPRPRPERHPRP | 0.277

Sequence | shrunken log2 fold change
RRIRYRPPRLPRPRPRPLHDPRP | -0.74
RRIRGRPPRLPRPRPRPHYEPRP | -0.21
RRIRYRPPRLPRPRPRPLDLPRP | -0.0215
RRIRARPPRLPRPRPRPQNMPRP | -0.497
RRIRRRPPRLPRPRPRPYRLPRP | -0.0421
RRIRMRPPRLPRPRPRPNDEPRP | 0.699
RRIRYRPPRLPRPRPRPACKPRP | -0.0277
RRIRVRPPRLPRPRPRPECWPRP | 0.573
RRIRGRPPRLPRPRPRPAISPRP | 0.296
RRIRNRPPRLPRPRPRPQWFPRP | -0.0391
RRIRERPPRLPRPRPRPALWPRP | 0.241
RRIRCRPPRLPRPRPRPGTQPRP | 0.00157
RRIRFRPPRLPRPRPRPYAHPRP | -0.18
RRIRKRPPRLPRPRPRPLLPPRP | 0.227
RRIRHRPPRLPRPRPRPTVMPRP | -0.0285
RRIRNRPPRLPRPRPRPTTMPRP | -0.0975
RRIRERPPRLPRPRPRPHNEPRP | -0.438
RRIRDRPPRLPRPRPRPFTAPRP | -0.128
RRIRLRPPRLPRPRPRPGKRPRP | 0.364
RRIRYRPPRLPRPRPRPSSDPRP | -0.218
RRIRLRPPRLPRPRPRPFFIPRP | -0.396
RRIRIRPPRLPRPRPRPTFQPRP | -0.0244
RRIRLRPPRLPRPRPRPMITPRP | -0.07
RRIRERPPRLPRPRPRPTPRPRP | 0.669
RRIRGRPPRLPRPRPRPDVMPRP | 1.33

Sequence | shrunken log2 fold change
RRIRIRPPRLPRPRPRPMHLPRP | -0.22
RRIRVRPPRLPRPRPRPQALPRP | -0.000718
RRIRFRPPRLPRPRPRPNEDPRP | 0.144
RRIRVRPPRLPRPRPRPSNPPRP | -0.454
RRIRPRPPRLPRPRPRPNWQPRP | 0.131
RRIRGRPPRLPRPRPRPNGFPRP | 0.0031
RRIRGRPPRLPRPRPRPNTNPRP | 0.256
RRIRCRPPRLPRPRPRPVFPPRP | -0.15
RRIRARPPRLPRPRPRPKGPPRP | 0.212
RRIRWRPPRLPRPRPRPQGWPRP | 0.0714
RRIRDRPPRLPRPRPRPWNNPRP | -0.0248
RRIRVRPPRLPRPRPRPWDTPRP | 0.00866
RRIRLRPPRLPRPRPRPLYQPRP | -0.833
RRIRSRPPRLPRPRPRPIENPRP | -0.00961
RRIRRRPPRLPRPRPRPTLDPRP | 0.809
RRIRLRPPRLPRPRPRPLAQPRP | 0.73
RRIRSRPPRLPRPRPRPISNPRP | -0.338
RRIRRRPPRLPRPRPRPYGWPRP | 0.0825
RRIRPRPPRLPRPRPRPKNRPRP | 0.00526
RRIRWRPPRLPRPRPRPPSLPRP | 0.115
RRIRDRPPRLPRPRPRPMRIPRP | -0.0494
RRIRSRPPRLPRPRPRPGEWPRP | -0.0156
RRIRKRPPRLPRPRPRPEVIPRP | -0.00256
RRIRWRPPRLPRPRPRPIFHPRP | -0.101
RRIRIRPPRLPRPRPRPRNGPRP | 0.103

Sequence | shrunken log2 fold change
RRIRCRPPRLPRPRPRPEGQPRP | 0.788
RRIRRRPPRLPRPRPRPRKEPRP | 0.4
RRIRQRPPRLPRPRPRPSHDPRP | -0.104
RRIRIRPPRLPRPRPRPNFMPRP | 0.713
RRIRERPPRLPRPRPRPVGVPRP | 0.0502
RRIRQRPPRLPRPRPRPGLWPRP | 0.452
RRIRLRPPRLPRPRPRPFHPPRP | -0.0146
RRIRHRPPRLPRPRPRPFKYPRP | -0.115
RRIRQRPPRLPRPRPRPVPGPRP | -0.141
RRIRVRPPRLPRPRPRPEFPPRP | -0.081
RRIRARPPRLPRPRPRPYRVPRP | -0.211
RRIRWRPPRLPRPRPRPLVCPRP | 0.476
RRIRVRPPRLPRPRPRPIEHPRP | -0.168
RRIRQRPPRLPRPRPRPCEWPRP | 0.000996
RRIRKRPPRLPRPRPRPVRHPRP | 0.0899
RRIRWRPPRLPRPRPRPLHFPRP | 0.136
RRIRRRPPRLPRPRPRPWSMPRP | -0.121
RRIRSRPPRLPRPRPRPLYDPRP | -0.113
RRIRYRPPRLPRPRPRPSMDPRP | -1.85
RRIRTRPPRLPRPRPRPMTLPRP | -0.028
RRIRGRPPRLPRPRPRPIRQPRP | -0.0411
RRIRARPPRLPRPRPRPKNNPRP | -0.0541
RRIRIRPPRLPRPRPRPVTVPRP | 0.129
RRIRMRPPRLPRPRPRPWMIPRP | -0.136
RRIRSRPPRLPRPRPRPCAWPRP | -0.035

From the supplement of paper PMC9112550, “Optimization of the antimicrobial peptide Bac7 by deep mutational scanning” (BMC Biology, 2022)
